The supplement of paper PMC9170038

Legend:
MS2 coat protein = assay: apparent KD of MS2 coat protein; higher = weaker reporter binding; conditions: Eterna round: R107
Procedure: (§1)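 RNA-MaP round R107: designed RNA switches with theophylline, tryptophan, arginine or FMN aptamers are transcribed on-chip within common flanks. They are titrated with SNAP-549-labelled MS2 coat protein in RNA-MaP buffer (100 mM Tris pH 7.5, 80 mM KCl, 4 mM MgCl2), without ligand or with the indicated ligand. Median apparent KD per design.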

[1] = system: K4 kissing-loop RNA reporter; assay: apparent KD of K4 kissing-loop reporter; higher = weaker reporter binding; conditions: Eterna round: R107;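 further: bound reporter read as fluorescence of individual clusters on recovered sequencing chips by microscopy, with normalized cluster intensities fitted with a binding model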
Procedure: as §1, with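 “a labelled K4 kissing-loop RNA reporter” for “SNAP-549-labelled MS2 coat protein”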

[2] = input ligand: theophylline 20 uM
[3] = input ligand: theophylline 2 mM
[4] = input ligand: tryptophan 2.4 mM

Row | Sequence | apparent KD of MS2 coat protein (MS2 coat protein; input ligand: arginine 13.2 mM) | apparent KD of MS2 coat protein (MS2 coat protein; input ligand: none) | apparent KD of MS2 coat protein (MS2 coat protein; [2]) | apparent KD of MS2 coat protein (MS2 coat protein; [3]) | apparent KD of MS2 coat protein (MS2 coat protein; [4]) | apparent KD of K4 kissing-loop reporter ([1]; input ligand: FMN 200 uM) | apparent KD of K4 kissing-loop reporter ([1]; input ligand: arginine 13.2 mM) | apparent KD of K4 kissing-loop reporter ([1]; input ligand: none) | apparent KD of K4 kissing-loop reporter [1, 2] | apparent KD of K4 kissing-loop reporter [1, 4]
1 | GACGGUACGUCGGCAAAGCCGAUGUGCCAGCGAGGACCGGUACGGCCGCCACUCGUACAUGAGGAUCACCCAUGUCCGGUCCGUC [Omei Trp SS A C v3] | 51.7 nM | 122 nM | 108 nM | 167 nM | 129 nM |  |  |  |  | 
2 | AAAUAAACAUCGGCCGCCACUUACUCAUGAGGUAACAACAUGAGGAUCACCCAUGUUUGAGGAUCAAGGACCGGGAUGUAAUAAA [AstrosSSTryB#1] | 23.1 nM | 27.3 nM | 33.6 nM | 32.9 nM | 19.6 nM |  |  |  |  | 
3 | UUAUAUAUACAUGAGGAUCACCCAUGUGAUACCAGCCUGGAAACAGGCCCUUGGCAGCACAAAUACUCCAGAAAAUAUAAUAAAU [MAT - Exclusion Theophlline A - Mod of Eli - D4] | 26.1 nM |  | 56.8 nM |  | 27.8 nM |  |  |  |  | 
4 | CUUACGGGAAACCGACCCAAACAACGGGAAGGAGCGCCAAACAAGGCAGGUAGGUCGCCCACAUGAGGAUCACCCAUGUGUUGGG [Exclusion Arginine A GF 26] | 42.6 nM | 38 nM | 47.7 nM | 42.3 nM | 45.1 nM |  |  |  |  | 
5 | AAGUGGCACGGAAGGAGCGAGUUUGCCUAUUACAUGAGGAUCACCCAUGUGGGUAAUGGGACUCAGGUAGGUCGCCGUUGUCACU [Same State Arginine B GF 26] | 29.5 nM | 56.8 nM | 48.5 nM | 42 nM | 46.3 nM |  |  |  |  | 
6 | GAACAUGAGGAUCACCCAUGUAAAACAGAUACCAGUGAUAUAAUACACCCUUGGCAGCUGAAGCUGAAUAAUAAUUCCCUCAAGC [Same State Theophylline A GF1] | 17 nM |  | 20 nM |  | 15 nM |  |  |  |  | 
7 | UCGUUUGAGGCGGCCGCCACUGGUCUCAUGGUCAACAUGAGGAUCACCCAUGUAUCUUUGCCAAGCAGGACCGGGCCUCGAGCGA [#20 Exclusion Tryptophan B] | 28.1 nM | 23.6 nM | 41.4 nM | 29.1 nM | 14.8 nM |  |  |  |  | 
8 | ACAUGAGGAUCACCCAUGUACAUAAGGGAAGGAGCGCGGUGAAACGCAGGUAGGUCGCCCAUAAUAACAAUAAAUAAAUUCAUGU [LeftA1] | 19.8 nM | 13.5 nM | 21 nM | 19 nM | 15.8 nM |  |  |  |  | 
9 | AAAGGCGGGCAGGAUACCAGCGCUAACAUGAGGAUCACCCAUGUACAAAUAAUAACAUGGUGCCCUUGGCAGCCUGGGCGUCUGC [Usedlati] | 26.6 nM |  | 150 nM |  | 61.3 nM |  |  |  |  | 
10 | UGUAUGGACUGAAGGAGCGGGAAAAUAAGAUGAGGAUCACCCAUCUAAAAGGCGAAAGCCACCCAGGUAGGUCGCAGUCCAUACU | 27.7 nM | 8.99 nM | 34.8 nM | 8.34 nM | 7.03 nM |  |  |  |  | 
11 | UCUACAUGAGGAUCACCCAUGUGCCAUGAUACCAGACAUGAAAAUGUCCCUUGGCAGCAUGGGUAGCGCAUCCGAAAGGAUGCGU [#06 SameState-TheophyllineA] | 42.4 nM |  | 155 nM |  | 33.4 nM |  |  |  |  | 
12 | AAAGAUCGGAAACGAUCGGCGGCUUGGGCGCGAGGACCGGUACGGCCGCCACUCGGGAAACAUGAGGAUCACCCAUGUUGCUUCU [ETA NP+V+V2 #16] | 10 nM |  | 12.5 nM | 11.9 nM |  |  |  |  |  | 
13 | AUACAUGAGGAUCACCCAUGUCAUUCAGAAGGAGCGUCAUUUUAGACAGGUAGGUCGCUGUUAUUUUUAUUAUUCUUUAUGUUUU [JR_Nu_ExcArginiA_Sub025] | 19.4 nM | 20.1 nM | 27.2 nM | 21.3 nM | 20.5 nM |  |  |  |  | 
14 | CUGCUACAUGAGGAUCACCCAUGUGGAGAUACCAGCCUGAACGAUGGCCCUUGGCAGCUCUUAGCUGGUGAUCAUAUAUUUCAGA [Zazaat] | 25.3 nM |  | 68.2 nM |  | 28.2 nM |  |  |  |  | 
15 | AAACAACGUGACGAUACCAGCUUACUCGGCAAGCCAGUGAUGUUGGUGAAAAGGAGUCAAAGCCCUUGGCAGCGUCGAAGGUUUG [Leteon] |  |  |  |  |  | 310 nM | 268 nM | 334 nM | 138 nM | 268 nM
16 | CGUGAGGACCUGAGGUGAUGUAUAGUAUCGCGAGGACCGGUACGGCCGCCACUCGUGAAGAGAAAGGAGUGAUGUUCCGUAAGGG |  |  |  |  |  | 474 nM | 470 nM | 470 nM | 677 nM | 138 nM

Row | Sequence | apparent KD of MS2 coat protein (MS2 coat protein; input ligand: arginine 13.2 mM) | apparent KD of MS2 coat protein (MS2 coat protein; input ligand: none) | apparent KD of MS2 coat protein (MS2 coat protein; [2]) | apparent KD of MS2 coat protein (MS2 coat protein; [3]) | apparent KD of MS2 coat protein (MS2 coat protein; [4]) | apparent KD of K4 kissing-loop reporter ([1]; input ligand: FMN 200 uM) | apparent KD of K4 kissing-loop reporter ([1]; input ligand: arginine 13.2 mM) | apparent KD of K4 kissing-loop reporter ([1]; input ligand: none) | apparent KD of K4 kissing-loop reporter [1, 2] | apparent KD of K4 kissing-loop reporter [1, 4]
17 | GCCGUAGAUUGAAGGAGCGUGGACCUAUCGCUUGAACAGUGAUGUUGUUUAUCUAGGAAGCCGCAGGUAGGUCGCAAUCUACGGC |  |  |  |  |  | 331 nM | 292 nM | 420 nM | 337 nM | 382 nM
18 | ACGCGCGCGAGUGAUGUUCGGAGCGGCUGGCAGGAUAUGUAGCAAUGCAGAAGGGUCGUGGCUGCUGGUAGGAAACUACUGGCAG [#2 Exclusion - FMN A Attempt #4 (HarryS)] |  |  |  |  |  | 252 nM | 316 nM | 424 nM | 358 nM | 441 nM
19 | AGGAGCGUGGGAUGAAAAUCGCACGCUCCUCGAGGACCGGUACGGCCGCCACUCGCUCGCGCCGAGUGAUGUUCGGCCGGCGAAC [#2 Same State - Tryptophan A Attempt #12 (HarryS)] |  |  |  |  |  | 265 nM | 244 nM | 312 nM | 217 nM | 556 nM
20 | AGCAGUCAACUCGAAACCAUCGAAGAUGGUCGAGGACCGGUACGGCCGCCACUCGGAGUGAUGUUCCGAAGACUGCAAAAUAAAA [#SwitchBubble 14] |  |  |  |  |  | 283 nM | 299 nM | 307 nM | 328 nM | 477 nM
21 | UUUGCAAAGUCGGCCGCCACUCCGGGCCCUAUAAAUGGGCGCAGUGAUGUUGCGGCUAGGCCUCUGAGGACCGGGACUUUGUAAA [Inusleve] |  |  |  |  |  | 151 nM | 52.1 nM | 52.3 nM | 77.2 nM | 179 nM
22 | GCAGUGAUGUUGCUGGUGUGCAGUGGUAGUCGAGGACCGGUACGGCCGCCACUCGGUGAGAACCUGCUAAUACAUCGAUAAGUGA [XVIII] |  |  |  |  |  | 550 nM | 369 nM | 738 nM | 463 nM | 558 nM
23 | CCCAAAAUAUGCAGUGAUGUUGCAACCGAUACCAGUAUCGAAAGAUACCCUUGGCAGCGGAAAACCGCAACGUAAUUUAAAAGGG [Ex Theophylline A K4 16] |  |  |  |  |  | 204 nM | 177 nM | 147 nM | 212 nM | 147 nM
24 | AGUACGGACGCGGCCGCCACUCAGGAGAAGAAGGUAGUGAUGUUGCUUAUGGAGAGAUCAAUCAAGAGGACCGGGUGCCGUGCAA [#07 K4 Tryptophan B Same State] |  |  |  |  |  | 285 nM | 340 nM | 426 nM | 534 nM | 338 nM
25 | UAUUCUGUUCGAAAGAACGGAAUUUCGGAAGGAGCGCGAGAAAUCGCAGGUAGGUCGCCGAAAUUAUUAGGUAGUGAUGUUACCU [Arginine A K4 6] |  |  |  |  |  | 125 nM | 99.8 nM | 120 nM | 101 nM | 115 nM
26 | GAGUCGGCACAAGGAUAUAGGUGUAGUGAUGUUAUGUCUCCUUGACUCACUCGUUACCCUCAACGUCUAGAAGGUGUGAAUGCAG [theeternabot_exclusion_KL_FMN_B_46] |  |  |  |  |  | 328 nM | 240 nM | 290 nM | 229 nM | 251 nM
27 | UGUCAUUGGUCGGCCGCCACUUCGUGUGGAGUGAUGUUUUGUAGAUUGUGUUGAAAGGUAUGGUGAAGGACCGGGACCGAUGACU [FiskerMod 21 - Jieux - Same State - Tryptophan B] |  |  |  |  |  | 1100 nM | 368 nM | 1090 nM | 242 nM | 997 nM
28 | GUCGGGACUCGAGGAUAUCAGUGGAGGCCAGUGAUGUUGGCCGUCCCGGUAGUUAAAAUUUUACCCUGAGAAGGCGAUUUCUGUC [Veceinusqu] |  |  |  |  |  | 142 nM | 128 nM | 133 nM | 131 nM | 138 nM
29 | UUAGCGACAAGUCAGAUUCUGACAAUUGAUACCAGAUAGAAUUCUAUCCCUUGGCAGCAGUGAUGUUGUUGCAAUAAGUCGCAUU [AK2 Exc Theophylline A] |  |  |  |  |  | 322 nM | 253 nM | 317 nM | 282 nM | 266 nM
30 | AGGUUUUGAUCAGGAUAUGCAUUGACGAUGAGAAUAUAGUGAUGUUAUAUACUACGAAUUAGUAAAGUAGAAGGGAUUGAGGUUU [SSFMNB.aB] |  |  |  |  |  | 747 nM | 565 nM | 820 nM | 898 nM | 518 nM
31 | GGACGACAGUCGGCCGCCACUCACAGCCGCCAGUGAUGUUGGAUUGUAGCGGAGUGAUGUUUCGCGAGGACCGGGACUGCAGUCC [Same State Tryptophan B GF 15] |  |  |  |  |  | 417 nM | 380 nM | 455 nM | 413 nM | 460 nM
